Experiment: yeast display, Sf9 membrane polyspecificity reagent, FACS + sequencing; frameworks hold sequencing errors
Method in brief: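 Nanobodies from a synthetic yeast display library (Saccharomyces cerevisiae BJ5465), induced 36–48 hours with galactose, were stained 1 hour at 4 °C with 10% biotinylated, detergent-solubilized Sf9 membrane reagent, enriched on streptavidin microbeads, then FACS-sorted. Anti-HA (expression) and streptavidin (reagent binding) fluorescence set low and high (top ~1%) gates. Polyreactivity labels come from the gate of origin. Genes were colony-PCR amplified, MiSeq 2 × 250 sequenced and filtered by CDR length.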

Row | Sequence | polyreactivity (PSR sort gate)
1 | QVQLVESGGGLVQAGGSLRLSCAASGFIFYRYTMGWSRQAPGKERELVAGSSSRGTRTYYADSVKGRFTISRDNAKNTVYLQMNSLKPEDTAVYYCAKVDGSKRYNYWGQGTQVTVSS | high polyreactivity
2 | QVQLVESGGGLVQAGGSLRLSCAASGFIFYRYTMGWYRQAPGKERELVASISSGGSTNYADSVKGRFTISRDNAKNTVYLQMNSLKPEDTAVYYCAASRFRWVQRYDYWGQGTQVTVSS | high polyreactivity
3 | QVQLVESGGGLVQAGGSLRLSCAASGFIFYSNAMGWYRQEPGKERELLADINRGGTSTYYADSVKGRFTISRDNAKNTVYLQMNSLKPEDTAVYYCNAGLRYRSRLWNIYWYDYWGQGTQVTVSS | high polyreactivity
4 | QVQLVESGGGLVQAGGSLRLSCAASGFIFYSYAMGWYRQAPGKERELVAAISSSGRTNYADSVKGRFTISRDNAKNTVYLQMNSLKPEDTAVYYCNVVRWHGYRVGRYDYWGQGSQVTVSS | high polyreactivity
5 | QVQLVESGGGLVQAGGSLRLSCAASGFIFYSYDMGWYRQAPGKERELVAAIDSRGVNTYFADSVKGRFTISRDNAKNTVYLQMNSLKPEDTAVYYCNVDAITWWDWEDFDSWGQGTQVTVSS | low polyreactivity
6 | QVQLVESGGGLVQAGGSLRLSCAASGFIFYTNAMAWYRQAPGNERQLVATLTTSGGRTYYADSVKGRFTISRDNAKNSVYLQMNSLKPEDTAVYYCATRYVVIEYDYWGQGTEVTVSS | low polyreactivity
7 | QVQLVESGGGLVQAGGSLRLSCAASGFIFYTYAMGWYRQAPGKERELVAGINSGGDTNYADSVKGRFTISRDNAKNTVYLQINSLKPEDTAVYYCAATSYVHKYYGYFGAIKYEYWGHGTQVTVSS | low polyreactivity
8 | QVQLVESGGGLVQAGGSLRLSCAASGFIFYYAMGWYRQAPGKERELVAAISSGSSTYADSVKGRFTISRDNAKNTVYLQMNSLKPEDTAVYYCATRYSSWYSNRDYDYWGQGTQVTVSS | low polyreactivity
9 | QVQLVESGGGLVQAGGSLRLSCAASGFIFYYYAMGWYRQAPGKERELVAAITGSGGNTYYADSVKGRFTISRDYAKNTVYFQMNSLKPEDTAFYYCNTGYDWGGDYWGQGTQVTVSS | high polyreactivity
10 | QVQLVESGGGLVQAGGSLRLSCAASGFIFYYYAMGWYSQAPGKERELVARISRGGSTYYADSVKGRFTISRDNAKNTVYLQMNSLKPEDTAVYYCAKVSIARIKTRYNYWGQGTQVTVSS | high polyreactivity
11 | QVQLVESGGGLVQAGGSLRLSCAASGFIFYYYDMGWYRQAPGKERELVAAISFDGDSTYYADSVKGRFTISRDNAKNTVYLQMNSLKPEDTAVYYCAARDYRYRYGYWGQGTQVTVSS | high polyreactivity
12 | QVQLVESGGGLVQAGGSLRLSCAASGFIIDPNAMGWYSQAPGKERDLVAAISSSGGRTYYADSVKGRFTISRDNAKNTVYFQLNSLKPEDTAVYYCATDTSVQGQEYDYWGKGTQVTVSS | low polyreactivity
13 | QVQLVESGGGLVQAGGSLRLSCAASGFIIGYYAMGWYRQAPGKERELVASIRRGGSTYYADSVKGRFTISRDNAKNTVYLQMNSLKPEDTAVYYCAVPYSRFSAFRRWVKYDYWGQGTQVTVSS | high polyreactivity
14 | QVQLVESGGGLVQAGGSLRLSCAASGFIIIGYVMGWYRQAPGKERELVAAITSSGGSTYYEDSVKGRFTISRDNAKNTVYLQMNSLKPEDTAVYYCAAEYYLLWSGMEYWGQGTQVTVSS | low polyreactivity
15 | QVQLVESGGGLVQAGGSLRLSCAASGFIIIGYVMGWYRQAPGNERELVAAITSSGSGTYYADSVKGRVTISRDNAKNTVYLQMNSLKPEDTAVYYSAAQVRYGTATYHVSSYHYTRYGYWGQATQVTVSS | low polyreactivity
16 | QVQLVESGGGLVQAGGSLRLSCAASGFIIKYYAMGWYRQAPGKERELVAAISSGGRTYYADSVKGRFTISRDNAKNTVYLQMNSLKPEDTAVYYCAKTFRKSYDWGQGTQVTVSS | high polyreactivity
17 | QVQLVESGGGLVQAGGSLRLSCAASGFIINKYTMGWYRQAPGKERELVAAITWSGGTTYYADSVKGRFTISRDNAKNTVYLQMNSLKPEDTALYYCAAYYYRGRVCAYDYWGQGTQVTVSS | high polyreactivity
18 | QVQLVESGGGLVQAGGSLRLSCAASGFIIRYYTMGWSRQAPGKERELVAVITSGGTTYYADSVKGRFTISRDNAKNTVYLQMNSLKPEDTAVYYCAADYRPRLDGVGVDYWGQGTQVTVSS | low polyreactivity
19 | QVQLVESGGGLVQAGGSLRLSCAASGFIISGNAMGWYRQAPGKERELVASISRSGGSTYYADSVKGRFTISRDNAKNTVYLQMNSLKPEDTAVYYCNARYYAIGQFNYWGQGTQVTVSS | low polyreactivity
20 | QVQLVESGGGLVQAGGSLRLSCAASGFIISPYAMGWYRQAPGKERELVAAISWSGVSTYYADSVKGRFTISRDNAKNTVYLQMNSLKPEDTAVYYCATYRTVYYWGQGTQVTVSS | high polyreactivity
21 | QVQLVESGGGLVQAGGSLRLSCAASGFILAYYAMGWYRQAPGKERELVAAISIGSSTDYADSVKGRFTISRDNAKNTVYLQMNSLKPEDTAVYYCAATYVYWTWGYDYWGQGTQVTVSS | low polyreactivity

Row | Sequence | polyreactivity (PSR sort gate)
22 | QVQLVESGGGLVQAGGSLRLSCAASGFILAYYEMGWYRQAPGKERELVAAISIGSSTDYADSVKGRFTISRDNAKNTVYLQMNSLKPEDTAVYYCAARDYYYEYDYWGQGTQVTVSS | low polyreactivity
23 | QVQLVESGGGLVQAGGSLRLSCAASGFILDRYAMGWYRQAPGKERELVASITSGGSTNYADSVKGRFTISRDNAKNTVYLQMNSLIPEDTAVYYCAAYPWRYWNHEYNYWGQGTQVTVSS | high polyreactivity
24 | QVQLVESGGGLVQAGGSLRLSCAASGFILDYNAMGWYRQAPGKERELVAAITSGGSTNYADSVKGRFTISRDNAKNTVYLQMNSLKPEDTAVYYCNVRSVSPVHDDGSWGQGTQVTVSS | low polyreactivity
25 | QVQLVESGGGLVQAGGSLRLSCAASGFILDYNAMGWYRQAPGKERELVATITGRGDRTYYADSVKGRFTISRDNAKNTVYLQMNSLKPEDTAVYYCAAGFDGSRHPGFDSWGQGTQVTVSS | low polyreactivity
26 | QVQLVESGGGLVQAGGSLRLSCAASGFILDYYDMGWYRQAPGKERELVAGINYGGDSTYYADSVKGRFTISRDNAKNTVYLQMNSLKPEDTAVYYCAADLYFQYPEYDYWGQGTQVTVSS | low polyreactivity
27 | QVQLVESGGGLVQAGGSLRLSCAASGFILERYAMGWYRQAPGKERELVAAISSVGNTNYADSVKGRFTISRDNAKNTVYFQMNSLKPEDTAVYYCAAEGAFPIYDYWGQGTQVTVSS | low polyreactivity
28 | QVQLVESGGGLVQAGGSLRLSCAASGFILGSNVMGWYRQAPGKERELVAAISYSGGSTYYADSVKGRFTISRDNAKNTVYLQMNSLKPEDTAVYYCARRLTREYDYWGQGTQVTVSS | low polyreactivity
29 | QVQLVESGGGLVQAGGSLRLSCAASGFILGYYAKGWSRQAPGKERELDAITSGDSTYYADSVKGRFTISRDTAKNTVYLQMNSLKPEDTAVYYCNAEASIERRYRGIIAVITRYDYWAQGTQVTVSS | high polyreactivity
30 | QVQLVESGGGLVQAGGSLRLSCAASGFILLDYAMGWYRQAPGKERELVAAISWSGARTYYADSVKGRFTISRDNAKNTVYLQMNSLKPEDTAVYYCAAKGQRGYWWGFDYWGQGTQVTVSS | low polyreactivity
31 | QVQLVESGGGLVQAGGSLRLSCAASGFILLDYAMRWYRQAPGKERELVAAISWSGARTYYADSVKGRFTISRDNAKNTVYLQMNSLKPEDTAVYYCATRYRWTPYDYWGQGTQVTVSS | low polyreactivity
32 | QVQLVESGGGLVQAGGSLRLSCAASGFILPTYAMGWYRQAPGKEREFVAAIRTSTGATYYADSVKGRFTISRDIAKNTVYLQMTSLKPEDNAVYYFPADAPWSEWLWADIVGYEYWGQGTQVTVSS | low polyreactivity
33 | QVQLVESGGGLVQAGGSLRLSCAASGFILRSYGMAWYRKAPGKERELVAAITRGGSTYYADSVKGRFTISRDNAKNTVYLQMNSLKAEDTAVYYCAARTRYYSQQFDYWGQGTQVTVSS | high polyreactivity
34 | QVQLVESGGGLVQAGGSLRLSCAASGFILRWYAMGWYRQAPGKERELVAAISWSGGSTYYADSVKGRFTISRDNAKNTVYLQMNSLKPEDTAVYYCNAVNYRNKYDYWGQGTQVTVSS | high polyreactivity
35 | QVQLVESGGGLVQAGGSLRLSCAASGFILRYYAMGWYRQAPGKERELVAAISSGGGTYYADSVKGRFTISRDNAKNTVYLQMNSLKPEDTAVYYCAADYWGLWHWLYTDDDGDYWGQGTQVTVSS | high polyreactivity
36 | QVQLVESGGGLVQAGGSLRLSCAASGFILSGYAMGWYRQAPGKERELVAVISGGGRTYYADSVKGRFTISRDNAKNTVYLQMNSLKPEDTAVYYCARPRTRQGDYWGQGTQVTVSS | high polyreactivity
37 | QVQLVESGGGLVQAGGSLRLSCAASGFILSPNTMGWYRQAPGKERELVAAISSDVSTYADSVKGRFTISRDNAKNTVYLQMNSLKPEDTAVYYCNADDFGYASYEYWGQGTQVTVSS | low polyreactivity
38 | QVQLVESGGGLVQAGGSLRLSCAASGFILSWYAMGWYRQAPGKERELVAGISRRGGSTYYADSVTGRFTISRDNAKNTVYLQMNSLKPEDTAVYYCNALYDDWSVSTGDYWGQGTQVTVSS | high polyreactivity
39 | QVQLVESGGGLVQAGGSLRLSCAASGFILWPYAMGWYRQEPGKERELVAAITTGGSTNYADSVKGRFTISRDNAKNTVYLQMNSLKPEDTAVYYCAKGYYFGYYEFDYWGQGTQVTVSS | high polyreactivity
40 | QVQLVESGGGLVQAGGSLRLSCAASGFILYYYAMGWYRQAPGIERELVAAISWSGDSTYYADSVKGRFTISRDNAKNTVYLQMNSLKPEDTAVYYCAATGQLTHRYYWGQGTQVTVSS | low polyreactivity
41 | QVQLVESGGGLVQAGGSLRLSCAASGFIRYYAMGWYRNAHGKERELVAAITATGASTYYADSVKGRFTISRDNAKNTVYLQMNSLKPEDTAVYYCIVRLRISSGYWGQGTQVTVSS | high polyreactivity
